Laboratory results reported in article PMC8234983, “Unravelling the Complex Denaturant and Thermal-Induced Unfolding Equilibria of Human Phenylalanine Hydroxylase” (International Journal of Molecular Sciences, 2021).

B1: full-length human phenylalanine hydroxylase (PAHt, Met1-Lys452) (enzyme, UniProt P00439 1-452, looked up)
chain: MSTAVLENPGLGRKLSDFGQETSYIEDNCNQNGAISLIFSLKEEVGALAKVLRLFEENDVNLTHIESRPSRLKKDEYEFFTHLDKRSLPALTNIIKILRHDIGATVHELSRDKKKDTVPWFPRTIQELDRFANQILSYGAELDADHPGFKDPVYRARRKQFADIAYNYRHGQPIPRVEYMEEEKKTWGTVFKTLKSLYKTHACYEYNHIFPLLEKYCGFHEDNIPQLEDVSQFLQTCTGFRLRPVAGLLSSRDFLGGLAFRVFHCTQYIRHGSKPMYTPEPDICHELLGHVPLFSDRSFAQFSQEIGLASLGAPDEYIEKLATIYWFTVEFGLCKQGDSIKAYGAGLLSSFGELQYCLSEKPKLLPLELEKTAIQNYTVTEFQPLYYVAESFNDAKEKVRNFAATIPRPFSVRYDPYTQRIEVLDNTQQLKILADSINSEIGILCSALQKIK
notes: human phenylalanine hydroxylase (EC 1.14.16.1), full-length construction, residues Met 1-Lys 452; No Fe(II) was added to the recombinant protein; also called PAHt(1-452); full-length PAH
B2: double truncated human phenylalanine hydroxylase (PAHd, Gly103-Thr427; ΔN1-102/ΔC428-452) (domain or fragment, UniProt P00439 103-427, looked up)
chain: GATVHELSRDKKKDTVPWFPRTIQELDRFANQILSYGAELDADHPGFKDPVYRARRKQFADIAYNYRHGQPIPRVEYMEEEKKTWGTVFKTLKSLYKTHACYEYNHIFPLLEKYCGFHEDNIPQLEDVSQFLQTCTGFRLRPVAGLLSSRDFLGGLAFRVFHCTQYIRHGSKPMYTPEPDICHELLGHVPLFSDRSFAQFSQEIGLASLGAPDEYIEKLATIYWFTVEFGLCKQGDSIKAYGAGLLSSFGELQYCLSEKPKLLPLELEKTAIQNYTVTEFQPLYYVAESFNDAKEKVRNFAATIPRPFSVRYDPYTQRIEVLDNT
notes: lacks most of the regulatory and multimerization domains; essentially the catalytic domain; Residues 103-117 are missing in the 1J8T PDB file; also called PAHd(103-427); truncated PAHd

Experiments:
[1] = target: the molecule itself; assay: AUC; sedimentation velocity, 25 °C, 45,000 rpm, 8 µM subunit, 0 M urea (native conditions); c(s) analysis
P00439 [2] = assay: as above
P00439 [3] = assay: AUC; sedimentation velocity, 25 °C, 45,000 rpm, 8 µM subunit, incubated overnight in 5.4 M urea; c(s) analysis
P00439 [4] = assay: AUC; sedimentation velocity, 25 °C, 45,000 rpm, 8 µM subunit, incubated overnight in 7.4 M urea; c(s) analysis

Row | Protein | stoichiometry N [1] | percent of total signal as aggregates (P00439 [2]) | percent of total protein signal as fast-sedimenting polydisperse species (aggregates) (P00439 [3]) | percent of total signal as aggregates (P00439 [4])
1 | B1 | 4 | aggregates (6% total) | multiple species of fast sedimentation at a broad range of 10.2–27.9 S representing 98% of the total protein signal | The rest of the protein signal at this high urea concentration, 13%, corresponds to aggregates of fast sedimentation
2 | B2 | 2 |  | from 9.6 S to 92.4 S and accounting for 98.3% of the total protein signal | The remaining 40% of the signal are species with sedimentation coefficients from 5.4 S to 18.8 S representing aggregates
